According to article doi:10.1101/433839:

What was measured:
[1] = target: wild-type SsuE (NADPH-dependent FMN reductase of the alkanesulfonate monooxygenase system) (UniProt P80644); experiment: other fluorescence titration
[2] = target: Y118A SsuE (UniProt P80644); experiment: other fluorescence titration

B1: wild-type SsuD (FMNH2-dependent alkanesulfonate monooxygenase) (enzyme)
chain: MSLNMFWFLPTHGDGHYLGTEEGSRPVDHGYLQQIAQAADRLGYTGVLIPTGRSCEDAWLVAASMIPVTQRLKFLVALRPSVTSPTVAARQAATLDRLSNGRALFNLVTGSDPQELAGDGVFLDHSERYEASAEFTQVWRRLLQRETVDFNGKHIHVRGAKLLFPAIQQPYPPLYFGGSSDVAQELAAEQVDLYLTWGEPPELVKEKIEQVRAKAAAHGRKIRFGIRLHVIVRETNDEAWQAAERLISHLDDETIAKAQAAFARTDSVGQQRMAALHNGKRDNLEISPNLWAGVGLVRGGAGTALVGDGPTVAARINEYAALGIDSFVLSGYPHLEEAYRVGELLFPLLDVAIPEIPQPQPLNPQGEAVANDFIPRKVAQS
A Kd [1] of 40 nM and a Kd [2] of 122 nM were found for B1 in this work.
